# From patent US20250207119A1 (VERRA THERAPEUTICS, published 2025)
# Changes are numbered by the printed parent chain. Names may count otherwise.
# B1: SEQ ID NO: 62 (R29A; R55A; C151S; E177A) (peptide)
# chain: NPLNKYIRHYEGLSYNVDSLHQKHQRAKAAVSHEDQFLRLDFHAHGRHFNLRMKADTSLFSDEFKVETSNKVLDYDTSHIYTGHIYGEEGSFSHGSVIDGRFEGFIQTRGGTFYVEPAERYIKDRTLPFHSVIYHEDDINYPHKYGPQGGSADHSVFERMRKYQMTGVEEVTQIPQAEHAANGPELLRK
# B2: SEQ ID NO: 64 (SEQ ID NO: 2 with R29K; R55K; C151S) (peptide)
# chain: NPLNKYIRHYEGLSYNVDSLHQKHQRAKKAVSHEDQFLLLDFHAHGRQFNLRMKKDTSLFSDEFKVETSNKVLDYDTSHIYTGHIYGEEGSFSHGSVIDGRFEGFIKTRGGTFYIEPAERYIKDRILPFHSVIYHEDDINYPHKYGPQGGSADHSVFERMRKYQMTGVEEGARAHPEKHAASSGPELLRK
# B3: SEQ ID NO: 67 (SEQ ID NO: 1/SEQ ID NO: 2 hybrid; R26A; R52A; C151S) (peptide)
# chain: B2 chain with R26A, K29R, L39R, Q48H, R52A, K55R, K107Q, I115V, I126T
# B4: N-term PEG-SEQ ID NO: 70 (R29K; R55K; C151S; E177A) (peptide)
# chain: CGSNPLNKYIRHYEGLSYNVDSLHQKHQRAKKAVSHEDQFLRLDFHAHGRHFNLRMKKDTSLFSDEFKVETSNKVLDYDTSHIYTGHIYGEEGSFSHGSVIDGRFEGFIQTRGGTFYVEPAERYIKDRTLPFHSVIYHEDDINYPHKYGPQGGSADHSVFERMRKYQMTGVEEVTQIPQAEHAANGPELLRK
# modifications: 10 kDa maleimide PEG on a cysteine at the N-terminus ('N-term PEG')
# B5: C-term PEG-SEQ ID NO: 71 (R29K; R55K; C151S; E177A) (peptide)
# chain: NPLNKYIRHYEGLSYNVDSLHQKHQRAKKAVSHEDQFLRLDFHAHGRHFNLRMKKDTSLFSDEFKVETSNKVLDYDTSHIYTGHIYGEEGSFSHGSVIDGRFEGFIQTRGGTFYVEPAERYIKDRTLPFHSVIYHEDDINYPHKYGPQGGSADHSVFERMRKYQMTGVEEVTQIPQAEHAANGPELLRKGSGSC
# modifications: 10 kDa maleimide PEG on a cysteine at the C-terminus ('C-term PEG')
# B6: SEQ ID NO: 65 (R26A; R52A; C151S) (peptide)
# chain: B1 chain with R26A, A29R, R52A, A55R
# B7: SEQ ID NO: 34 (R29A; C151S; E177A) (peptide)
# chain: B1 chain with A55R
# B8: C-term PEG-SEQ ID NO: 69 (R29K; R55K; E177A) (peptide)
# chain: B1 chain with A29K, A55K, S151C
# modifications: 10 kDa maleimide PEG on a cysteine; printed as 'C-term PEG' in Table 5 (the listed changes keep Cys151, and paragraph 162 speaks of a cysteine at C151, or the N- or C-terminus, for SEQ ID NOs: 69-71)
# B9: SEQ ID NO: 68 (R26A; R55A; C151S) (peptide)
# chain: B1 chain with R26A, A29R
# B10: SEQ ID NO: 6 (mut2; K28A; K54A; C151S) (peptide)
# chain: B1 chain with K28A, A29R, K54A, A55R, A177E
# B11: SEQ ID NO: 63 (R29K; R55K; C151S; E177A) (peptide)
# chain: B1 chain with A29K, A55K
# B12: Cys151-pegylated SEQ ID NO: 5 (K28A; K54A) (peptide)
# chain: B1 chain with K28A, A29R, K54A, A55R, S151C, A177E
# modifications: 10 kDa maleimide PEG on Cys151
# B13: SEQ ID NO: 9 (mut3; K28A; K54A; E88A; E177A) (peptide)
# chain: B1 chain with K28A, A29R, K54A, A55R, E88A, S151C
# B14: SEQ ID NO: 66 (SEQ ID NO: 1/SEQ ID NO: 2 hybrid; R26A; R55A; C151S; E177A) (peptide)
# chain: B1 chain with R26A, A29R, R39L, H48Q, L73P, Q107K, V115I, T126I
# B15: SEQ ID NO: 5 (mut 1; K28A; K54A) (peptide)
# chain: B1 chain with K28A, A29R, K54A, A55R, S151C, A177E
# Biological target: MMP 12 (UniProt P39900 17-470, limits assumed)
# Sequence (P39900 17-470 limits assumed): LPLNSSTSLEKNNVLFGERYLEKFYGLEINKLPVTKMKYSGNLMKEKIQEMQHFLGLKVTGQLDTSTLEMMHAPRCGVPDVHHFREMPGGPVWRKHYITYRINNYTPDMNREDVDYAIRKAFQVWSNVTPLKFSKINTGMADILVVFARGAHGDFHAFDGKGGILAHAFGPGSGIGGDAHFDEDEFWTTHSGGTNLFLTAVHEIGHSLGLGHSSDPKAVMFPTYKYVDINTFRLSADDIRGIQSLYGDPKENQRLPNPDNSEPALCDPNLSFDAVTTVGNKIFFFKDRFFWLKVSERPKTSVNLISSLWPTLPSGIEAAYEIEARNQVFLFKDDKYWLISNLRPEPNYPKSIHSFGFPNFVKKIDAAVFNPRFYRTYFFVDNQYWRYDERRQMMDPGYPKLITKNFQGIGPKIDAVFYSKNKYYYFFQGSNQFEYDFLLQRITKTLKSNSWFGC
# Experiment: cell-based or functional assay
row,Binder,percent inhibition of MMP activity (PEPDAB008 substrate) [% at 8 µM]
1,B1,0

# Biological target: MMP 14 (UniProt P50281 21-538)
# Experiment: cell-based or functional assay
row,Binder,percent inhibition of MMP activity (PEPDAB008 substrate) [% at 8 µM]
1,B1,0

# Biological target: MMP 9 (UniProt P14780 20-707, limits assumed)
# Sequence (P14780 20-707 limits assumed): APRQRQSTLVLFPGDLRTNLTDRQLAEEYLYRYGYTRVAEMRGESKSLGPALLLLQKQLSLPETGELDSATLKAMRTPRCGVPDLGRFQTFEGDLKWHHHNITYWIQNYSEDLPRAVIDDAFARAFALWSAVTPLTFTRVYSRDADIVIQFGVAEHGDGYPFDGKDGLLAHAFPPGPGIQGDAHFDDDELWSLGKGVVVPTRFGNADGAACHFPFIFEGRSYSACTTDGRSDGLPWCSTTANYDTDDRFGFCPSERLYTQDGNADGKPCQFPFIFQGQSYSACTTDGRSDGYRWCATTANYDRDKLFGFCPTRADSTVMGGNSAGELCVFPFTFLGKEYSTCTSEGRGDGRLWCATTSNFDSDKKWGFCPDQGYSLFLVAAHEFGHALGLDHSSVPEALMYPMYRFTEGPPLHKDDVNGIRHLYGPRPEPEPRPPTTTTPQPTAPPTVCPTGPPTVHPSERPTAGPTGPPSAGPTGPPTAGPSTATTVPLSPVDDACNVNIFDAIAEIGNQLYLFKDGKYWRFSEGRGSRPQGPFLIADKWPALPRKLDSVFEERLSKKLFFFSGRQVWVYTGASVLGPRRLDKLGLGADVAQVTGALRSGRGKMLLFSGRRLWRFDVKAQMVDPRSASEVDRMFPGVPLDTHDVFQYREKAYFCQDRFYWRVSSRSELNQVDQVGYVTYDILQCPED
# Experiment: cell-based or functional assay
row,Binder,percent inhibition of MMP activity (PEPDAB008 substrate) [% at 8 µM]
1,B1,0

# Biological target: MMP 3 (UniProt P08254 18-477, limits assumed)
# Sequence (P08254 18-477 limits assumed): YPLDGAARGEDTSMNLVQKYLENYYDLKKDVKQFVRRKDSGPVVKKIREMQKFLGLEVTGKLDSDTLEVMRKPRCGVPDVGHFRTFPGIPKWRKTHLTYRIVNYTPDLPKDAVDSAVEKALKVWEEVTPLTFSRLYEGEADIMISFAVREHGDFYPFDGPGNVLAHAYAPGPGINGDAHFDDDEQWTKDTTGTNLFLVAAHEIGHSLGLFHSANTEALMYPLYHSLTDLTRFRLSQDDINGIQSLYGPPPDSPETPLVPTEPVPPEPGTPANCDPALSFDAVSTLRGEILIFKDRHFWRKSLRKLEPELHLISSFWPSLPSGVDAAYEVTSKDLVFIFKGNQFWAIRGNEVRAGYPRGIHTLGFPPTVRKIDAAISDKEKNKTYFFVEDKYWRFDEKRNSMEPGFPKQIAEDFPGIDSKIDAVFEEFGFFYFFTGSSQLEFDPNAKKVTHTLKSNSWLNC
# Experiment: cell-based or functional assay
row,Binder,percent inhibition of MMP activity (PEPDAB008 substrate) [% at 8 µM]
1,B1,0

# Biological target: T1, MMP 2 (UniProt P08253 30-660, limits assumed)
# T1 sequence (looked up): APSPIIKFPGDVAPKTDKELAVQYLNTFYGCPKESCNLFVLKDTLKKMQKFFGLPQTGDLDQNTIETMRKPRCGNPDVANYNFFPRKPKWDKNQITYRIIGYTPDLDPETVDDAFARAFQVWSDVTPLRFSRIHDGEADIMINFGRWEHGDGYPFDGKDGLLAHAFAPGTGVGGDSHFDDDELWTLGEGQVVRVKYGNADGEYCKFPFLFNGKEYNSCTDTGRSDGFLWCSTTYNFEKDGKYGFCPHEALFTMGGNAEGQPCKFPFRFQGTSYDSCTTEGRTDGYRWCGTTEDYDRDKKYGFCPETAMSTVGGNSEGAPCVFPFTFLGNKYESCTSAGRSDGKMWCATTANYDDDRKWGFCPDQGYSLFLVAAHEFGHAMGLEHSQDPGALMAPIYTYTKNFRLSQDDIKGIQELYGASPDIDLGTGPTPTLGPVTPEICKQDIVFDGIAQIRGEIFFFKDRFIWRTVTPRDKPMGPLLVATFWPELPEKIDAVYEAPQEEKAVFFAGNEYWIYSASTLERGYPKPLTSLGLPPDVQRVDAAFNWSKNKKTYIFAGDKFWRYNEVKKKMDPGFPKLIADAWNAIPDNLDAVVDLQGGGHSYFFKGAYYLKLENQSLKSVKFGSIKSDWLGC
# Experiment: cell-based or functional assay
row,Binder,percent inhibition of MMP activity (PEPDAB008 substrate) [% at 8 µM]
1,B1,0

# Biological target: T2, Human ADAM10 from R & D Systems (human, UniProt O14672 214-672)
# T2 sequence (looked up): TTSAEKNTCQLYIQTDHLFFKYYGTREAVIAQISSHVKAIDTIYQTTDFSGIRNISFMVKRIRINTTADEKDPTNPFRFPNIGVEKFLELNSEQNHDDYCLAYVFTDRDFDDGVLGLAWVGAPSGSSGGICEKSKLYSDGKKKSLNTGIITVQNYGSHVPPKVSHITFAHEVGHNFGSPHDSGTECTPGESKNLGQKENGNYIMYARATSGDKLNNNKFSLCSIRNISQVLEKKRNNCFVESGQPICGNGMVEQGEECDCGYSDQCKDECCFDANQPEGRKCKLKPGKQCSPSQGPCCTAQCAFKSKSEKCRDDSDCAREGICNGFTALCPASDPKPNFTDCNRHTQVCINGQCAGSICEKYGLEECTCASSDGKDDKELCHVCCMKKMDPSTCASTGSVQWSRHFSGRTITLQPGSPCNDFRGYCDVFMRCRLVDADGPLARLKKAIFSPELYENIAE
# Experiment: cell-based or functional assay
row,Binder,"IC50 (nM), inhibition of ADAM10 cleavage of the fluorescent substrate PEPDAB064 [nM]"
1,B2,83
2,B3,147
3,B4,52
4,B5,19
5,B6,49
6,B7,95
7,B8,71
8,B1,110
9,B9,130
10,B10,106
11,B11,35
12,B12,83
13,B13,142
14,B14,234
15,B15,104

# Biological target: Meprin from R & D Systems
# Experiment: cell-based or functional assay
Binder,"IC50 (nM), inhibition of meprin cleavage of the fluorescent substrate PEPDAB022 [nM]","IC50, inhibition of meprin cleavage of the fluorescent substrate PEPDAB022 [nM]"
B2,682,
B4,,~7000
B5,,~4000
B6,289,
B7,289,
B8,,~5000
B1,817,
B11,542,
